Reference: patent US8440629B2, “Cyclic receptor-associated protein (RAP) peptides” (Raptor Pharmaceuticals Inc., priority 2007, dated 2013)
Read-outs that look alike come from different tables or passages of the source. Each block holds one substance with its values, some of them ahead of it. Positions of bridges follow the written chain, without caps; N, C: chain ends. No end group written: not given here.

Experiments:
[1] = molecular target: T1, LRP1 cluster II (LRP1-C2) (Homo sapiens, UniProt Q07954); assay: Inhibition of RAP d3 binding to LRP1-C2 (ELISA)
T1 construct: recombinant human LRP1 cluster II (amino acids 786-1165, with C-terminal Fc tag); purchased R&D Systems; host or cells: NS0
T1 sequence (Q07954 786-1165): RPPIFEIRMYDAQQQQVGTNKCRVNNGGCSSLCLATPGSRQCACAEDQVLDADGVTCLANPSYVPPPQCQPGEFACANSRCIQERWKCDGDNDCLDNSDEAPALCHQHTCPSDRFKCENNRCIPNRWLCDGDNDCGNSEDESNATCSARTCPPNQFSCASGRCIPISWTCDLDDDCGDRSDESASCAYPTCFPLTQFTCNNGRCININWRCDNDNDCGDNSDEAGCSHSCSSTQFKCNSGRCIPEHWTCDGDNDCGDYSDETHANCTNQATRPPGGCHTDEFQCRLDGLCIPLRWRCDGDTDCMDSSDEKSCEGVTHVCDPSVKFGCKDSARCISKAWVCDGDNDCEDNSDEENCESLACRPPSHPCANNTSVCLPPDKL
Procedure: Binding inhibition assays were also carried out to determine the ability of the mRAPc peptide to interfere with RAP d3 binding to LRP1 (cluster II), as well as binding of LRP ligands α-2-macroglobulin and uPA/PAI-1. To allow complexation with streptavidin or an anti-biotin antibody, the mRAPc peptide was fitted with an N-terminal biotin residue separated from the RAP sequence by a pentapeptide linker (GGSGG). Solid phase binding assays were performed using recombinant human LRP1 cluster II (amino acids 786-1165, with C-terminal Fc tag, 1 μg, R&D Systems, Minneapolis, Minn.) to coat Nunc MAXISORP™ 96-well plates in TBS pH 8 supplemented with 5 mM CaCl2 (TBSC) overnight at 4° C. Data was generated by ELISA assay. Wells were washed with TBSC and blocked with TBSC containing 2% BSA. In assays involving complexes between streptavidin and biotinylated peptide, LRP1 ligands (RAP d3 (2 nM), trypsin-activated α-2-macroglobulin (1 nM) or uPA/PAI-1 (10 nM) were incubated with the immobilized receptor, in the presence or absence of inhibitors, for 2 hours in the above blocking buffer supplemented with 0.05% Tween-20 at room temperature. In assays involving complexes of the anti-biotin antibody and biotinylated peptide, all inhibitor solutions were pre-incubated with immobilized LRP1-C2 prior to washing and subsequent incubation with ligand. Since the ligand binding competence of CR pairs requires calcium, identical binding reactions were done in the presence of 50 mM EDTA to provide a measure of non-specific binding. Control wells contained no added inhibitor. Wells were washed with TBS supplemented with 5 mM CaCl2 and 0.05% Tween-20. Bound ligand was detected with either anti-S-peptide-HRP conjugate (Abcam, Cambridge, Mass.), anti-α-2-macroglobulin-HRP or anti-PAI-1-HRP. Excess HRP conjugate was removed and wells washed. Color was developed using TMB reagents (BioRad, Hercules, Calif.). Absorption at 450 nm was measured with a microplate spectrophotometer (Molecular Devices, Palo Alto, Calif.).
The ability of mRAPc, in the presence and absence of either streptavidin or anti-biotin antibody, to inhibit binding of recombinant RAP d3 to LRP1-C2 was measured. […] The multifold enhancement of inhibition seen in the presence of streptavidin is consistent with an improvement in avidity upon multimerization of the minimized RAP domain.
Given the relatively weak monovalent affinity of the anti-biotin antibody for biotin (low nanomolar KD), it was hypothesized that preassembly of a multivalent complex consisting of two, suitably proximate, receptor-bound peptides and a single antibody would stabilize the peptide-antibody complex. Therefore, the antibody and peptide, in a molar ratio of one to three, was incubated with the immobilized receptor prior to washing and subsequent addition of the RAP d3 ligand. The same procedure was performed for the controls; peptide alone, antibody alone and RAP. […] Next the effect of the multimerized mRAPc was determined. The multimerized mRAPc was compared to the mRAPc monomer and full-length RAP in the inhibition of binding of two other ligands to LRP1-C2, trypsin-activated α-2-macroglobulin and the uPA/PAI-1 complex, at a single ligand concentration. […] In both cases, the complex of streptavidin and mRAPc inhibited binding with an EC50 approximately midway between RAP and the mRAPc monomer.

[2] = molecular target: LRP1, LRP1B, LRP2, SorLA, apoER2 and VLDLR; conditions: read-out: dissociation constants; cited from earlier work
LDLR, LRP5 and LRP6 = conditions: cited from earlier work
rhLRP1 cluster II = molecular target: T2, rhLRP1 cluster II (Homo sapiens, UniProt Q07954); assay: Solid phase binding assay of RAP peptides
T2 construct: rhLRP1 cluster II (aa 786-1165, C-terminal Fc, 1 μg); purchased R&D Systems; host or cells: NS0
T2 sequence (Q07954 786-1165): T1 sequence (Q07954 786-1165)
Procedure: Solid phase binding assays were carried out as follows. Recombinant murine VLDLR ectodomain (aa 1-798, C-terminal hexahistidine, 1 μg) or rhLRP1 cluster II (aa 786-1165, C-terminal Fc, 1 μg) were bound to Nunc Maxisorp™ 96-well plates in TBS pH 8 supplemented with 5 mM CaCl2 (TBSC) overnight at 4° C. Wells were washed with TBSC and then blocked with TBSC containing 2% BSA. Peptides were then incubated with the immobilized receptor at a range of concentrations for 2 hours in the above blocking buffer supplemented with 0.05% Tween-20 at room temperature. Identical binding reactions were done in the presence of 50 mM EDTA to provide a measure of non-specific binding. Control wells contained no added peptide. Additional controls established absence of cross-reactivity between antibodies and receptors. Wells were washed with TBSTC and bound peptides detected with streptavidin-HRP (Pierce) or polyclonal anti-RAP (1:1,000, Raptor Pharmaceutical). […] Absorption at 450 nm was measured with a microplate spectrophotometer (Molecular Devices). […]
The binding affinity of the peptides for LRP1 and VLDLR, another receptor in the LDLR family, was measured as follows. […] Bound peptides were detected with streptavidin-HRP after extensive washing. Binding values measured in the presence of EDTA were subtracted from values measured in the absence of EDTA in order to determine calcium-dependent binding levels. […]

- EC50 better than peptide assembled on streptavidin ([1]; FIG. 14A): about 8 fold
- EC50 improvement over monomeric mRAPc peptide ([1]; FIG. 14A): 64 fold
- EC50 ([1]; inhibitor pre-incubated with immobilized receptor, washed, then ligand, FIG. 14B, read-out: EC50 of inhibition of RAP d3 binding): 0.3 nM
- EC50 ([1]; ligand and inhibitor incubated together, FIG. 14A, read-out: degree of inhibition (EC50) of RAP d3 binding): 0.5 nM
Substance: RAP: receptor-associated protein, mature human RAP (SEQ ID NO: 95)
- Kd [2]: < 5 nM
- affinity lower than for LRP1 (LDLR, LRP5 and LRP6): at least 10 fold

Substance: CEAKIEKHNHYQKQLEIAHEKLRHAESVGDGERVSRSREKHALLEGRTKELGYTVKKHGC (disulfide 1-60) [mRAP-14c]
- Kd (rhLRP1 cluster II): ~21 nM

- inhibitory effect (in words) ([1]; ligand and inhibitor incubated together): no inhibitory effect
Substance: streptavidin: streptavidin alone, control
